target: T1, Recombinant MBP-mutCALR Type 1 fusion protein (human); assay: SPR, IgG captured, 1:1 fit, Exp. 1
T1 construct: custom made at Cepter; also called recombinant mutCALR protein
Method: Experiment 1: Recombinant MBP-mutCALR Type 1 fusion protein was custom made at Cepter (cepterbiopartners.com). Data for the interaction of antibodies with recombinant MBP-mutCALR Type 1 fusion protein were collected at 25° C. on a Biacore 8K instrument (Cytiva, Marlborough, Mass.), and all reagents were obtained from Cytiva unless otherwise specified. The experiments were conducted using Tris-buffered saline (pH 7.2), 0.005% Surfactant P20, 1 mM CaCl₂) as running buffer. To prepare the capture surfaces, anti-human IgG (Fc) antibodies (Product #29234600) was amine-coupled onto a CM4 chip (Product #BR100534) under standard conditions using an Amine Coupling Kit (Product #BR100050). […] The kinetics parameters were obtained by applying 1:1 binding model to fit the data from multiple-cycle injection experiments using Biacore Insight Evaluation software.

| Binder | Kd | koff | kon |
| --- | --- | --- | --- |
| anti-mutCALR antibody clone 38 (antibody, human IgG1, kappa, V domains shown, human IgG1) VH: EVQPVQSGAEVKKPGSSVKVSCKASGGTFSSYAISWVRQAPGQGLEWMGLVDPEDGETIYAEKFRGRVTITADTSTDTAYMELSSLRSEDTAVYYCATEESYGPWGQGTLVTVSS VL: DIQLTQSPSSLSASVGDRVTITCQASQDISNYLNWYQQKPGKAPKLLIYDASNLETGVPSRFSGSGSGTEFTLTISSLQPEDFATYYCQQLNSYPLTFGGGTKLEIKR | 2.1 nM | 0.00268 s⁻¹ | 1.28e+06 M⁻¹ s⁻¹ |
| anti-mutCALR antibody clone 39 (antibody, human IgG1, kappa, V domains shown, human IgG1) VH: EVQLVQSGAEVKKPGSSVKVSCKASGGTFSSYAISWVRQAPGQGLEWMGLVDPEDGETIYAEKFQGRVTITADTSTDTAYMELSSLRSEDTAVYYCATEESYGPWGQGTLVTVSS VL: DIQLTQSPSSLSASVGDRVTITCQASQDISNYLDWYQQKPGKAPKLLIYDASNLETGVPSRFSGSGSGTEFTLTISSLQPEDFATYYCQQLNSYPLTFGGGTKLEIKR | 5.59 nM | 0.0018 s⁻¹ | 322000 M⁻¹ s⁻¹ |
| anti-mutCALR antibody clone 23 (antibody, human IgG1, lambda, V domains shown, human IgG1) VH: EVQLVQSGAEVKKPGASVKVSCKVSGYTLTELSMQWVRQAPGKGLEWMGGFDPDDGETMYAEKFQGRLTVTEDTSTDTVYMELRSLTSEDTALYFCATSPGYDFFDYWGQGTLVTVSS VL: SYVLTQPPSVSVAPGQTARITCGGNNIGIKSVHWYQQKPGQAPVLVVYDDSDRPSGIPERFSGSNSGNTATLTINRVEAGDEADYYCQVWDSSNDLLIFGGGTKLTVLG | 4.37 nM | 0.00343 s⁻¹ | 785000 M⁻¹ s⁻¹ |
| anti-mutCALR antibody clone 30 (antibody, human IgG1, lambda, V domains shown, human IgG1) VH: EVQLVQSGAEVKKPGASVKVSCKVSGYTLTELSMQWVRQAPGKGLEWMGGFDPDDGETMYAEKFQGRLTVTEDTSTDTVYMELRSLTSEDTALYFCATSPGYDFFDYWGQGTLVTVSS VL: SYVLTQPPSVSVAPGKTATITCGGNNIGTKSVHWYQQKPGQAPVLVVYDDSDRPSGIPERFSGSNSGNTATLTINRVEAGDEADYYCQVWDSSNDLLIFGGGTKLTVLG | 12.8 nM | 0.00295 s⁻¹ | 231000 M⁻¹ s⁻¹ |
| anti-mutCALR antibody clone 25 (antibody, human IgG1, lambda, V domains shown, human IgG1) VH: EVQLVQSGAEVKKPGASVKVSCKVSGYTLTELSMQWVRQAPGKGLEWMGGFDPDDGETMYAEKFQGRLTVTEDTSTDTVYMELRSLTSEDTALYFCATSPGYDFFDYWGQGTLVTVSS VL: SYELTQPPSVAVAPGQTARITCGGNNIGRKAVHWYQQKPGQAPVLVVYDDSDRPSGIPERFSGSNSGNTATLTINRVEAGDEADYYCQVWDSSNDLLIFGGGTKLTVLG | 6.64 nM | 0.00389 s⁻¹ | 585000 M⁻¹ s⁻¹ |
| anti-mutCALR antibody clone 29 (antibody, human IgG1, lambda, V domains shown, human IgG1) VH: EVQLVQSGAEVKKPGASVKVSCKVSGYTLTELSMQWVRQAPGKGLEWMGGFDPDDGETMYAEKFQGRLTVTEDTSTDTVYMELRSLTSEDTALYFCATSPGYDFFDYWGQGTLVTVSS VL: SYVLTQPPSVSVAPGKTARITCGGNNIGSKSVHWYQQKPGQAPVLVVYDDSDRPSGIPERFSGSNSGNTATLTISRVEAGDEADYYCQVWDSSSDLLIFGGGAKLTVLG | 8.16 nM | 0.00561 s⁻¹ | 688000 M⁻¹ s⁻¹ |
| anti-mutCALR antibody clone 24 (antibody, human IgG1, lambda, V domains shown, human IgG1) VH: EVQLVQSGAEVKKPGASVKVSCKVSGYTLTELSMQWVRQAPGKGLEWMGGFDPDDGETMYAEKLQGRLTVTEDTSTDTVYMELRSLTSEDTALYFCATSPGYDFFDYWGQGTLVTVSS VL: SYVLTQPPSVSVAPGKTARITCGGNNIGSKSVHWYQQKPGQAPVLVVYDDSDRPSGIPERFSGSNSGNTATLTINRVEAGDEADYYCQVWDSSNDLLIFGGGTKLTVLG | 7.62 nM | 0.00199 s⁻¹ | 261000 M⁻¹ s⁻¹ |
| anti-mutCALR antibody clone 11 (antibody, human IgG1, lambda, V domains shown, human IgG1) VH: EVRLVQSGAEVKKPGASVKVSCKVSGYTLTELSMQWVRQAPGKGLEWMGGFDPDDGETMYAEKFQGRLTVTEDTSTDTVYMELRSLTSEDTALYFCATSPGYDFFDYWGQGTLVTVSS VL: QSALTQPRSVSGSPGQSVTISCTGTSSDVGGYNYVSWYQQHPGKAPKLMIYDVSKRPSGVPDRFSGSNSGNTATLTINRVEAGDEADYYCQVWDSSNDLLIFGGGTKLTVLG | 10.2 nM | 0.00524 s⁻¹ | 514000 M⁻¹ s⁻¹ |
| anti-mutCALR antibody clone 28 (antibody, human IgG1, lambda, V domains shown, human IgG1) VH: EVQLVQSGAEVKKPGASVKVSCKVSGYTLTELSMQWVRQAPGKGLEWMGGFDPDDGETMYAEKFQGRLTVTEDTSTDTVYMELRSLTSEDTALYFCATSPGYDFFDYWGQGTLVTVSS VL: SYELTQPPSVSVAPGQTARITCGGNNIGSKSVHWYQQKPGQAPVLVVYDDSDRPSGIPERFSGSNSGNTATLTISRVEAGDEADYYCQVWDADSDQLIFGGGTKLTVLG | 19.5 nM | 0.00897 s⁻¹ | 460000 M⁻¹ s⁻¹ |
| anti-mutCALR antibody clone 26 (antibody, human IgG1, lambda, V domains shown, human IgG1) VH: EVQLVQSGAEVKKPGASVKVSCKVSGYTLTELSMQWVRQAPGKGLEWMGGFDPDDGETMYAEKFQGRLTVTEDTSTDTVYMELRSLTSEDTALYFCATSPGYDFFDYWGQGTLVTVSS VL: SYVLTQPPSVSVAPGQTARITCGGNNIGSKSVHWYQQKPGQAPVLVVYDDSDRPSGIPERFSGSNSGNTATLTISRVEAGDEADYYCQVWDSSIDHLIFGGGTKVTVLG | 9.84 nM | 0.00471 s⁻¹ | 478000 M⁻¹ s⁻¹ |
| anti-mutCALR antibody clone 27 (antibody, human IgG1, lambda, V domains shown, human IgG1) VH: EVQLVQSGAEVKKPGASVKVSCKVSGYTLTELSMQWVRQAPGKGLEWMGGFDPDDGETMYAEKFQGRLTVTEDTSTDTVYMELRSLTSEDTALYFCATSPGYDFFDYWGQGTLVTVSS VL: SYVLTQPPSVSVAPGQTARITCGGNNIGIKSVHWYQQKPGQAPVLVVYDDRDRPSGIPERFSGSNSGNTATLTINRVEAGDEADYYCQVWDSSNDLLIFGGGTKLTVLG | 9.63 nM | 0.00366 s⁻¹ | 380000 M⁻¹ s⁻¹ |
| anti-mutCALR antibody clone 48 (antibody, human IgG1, lambda, V domains shown, human IgG1) VH: EVQLVQSGAEVKKPGSSVKVSCKASGGTFSSYAISWVRQAPGQGLEWMGGIIPIFGTANYAQKFQGRVTITADESTSTAYMELSSLRSEDTAVYYCASSPLRGSGWYWHYYYGMDVWGQGTTVTVSS VL: SYVLTQPPSVSVAPGKTARITCGGNNIGSKSVHWYQQKPGQAPVLVIYQDRKRPSGIPERFSGSNSGNTATLTISGTQAMDEADYYCQAWDSSTAVFGGGTKLTVLG | 1.64 nM | 0.000297 s⁻¹ | 181000 M⁻¹ s⁻¹ |
| anti-mutCALR antibody clone 49 (antibody, human IgG1, lambda, V domains shown, human IgG1) VH: EVQLVQSGAEVKKPGSSVKVSCKASGGTFSSYAISWVRQAPGQGLEWMGGIIPIFGTANYAQKFQGRVTITADESTSTAYMELSSLRSEDTAVYYCASSPLRGSGWYWHYYYGMDVWGQGTTVTVSS VL: SYELTQPPSVSVAPGKTARITCGGNNIRAKHVHWYQQKPGQSPVLVIYQDSKRPSGIPERFSGSNSGSTATLTISRVEAGDEADYYCQVWDSSTVVFGGGTKLTVLG | 3.61 nM | 0.000669 s⁻¹ | 185000 M⁻¹ s⁻¹ |
| anti-mutCALR antibody clone 45 (antibody, human IgG1, lambda, V domains shown, human IgG1) VH: EVQLVQSGAEVKKPGSSVKVSCKASGGTFSSYAISWVRQAPGQGLEWMGGIIPIFGTANYAQKFQGRVTITADESTSTAYMELSSLRSEDTAVYYCASSPLRGSGWYWHYYYGMDVWGQGTTVTVSS VL: SYVLTQPLSVSVAPGQTARITCGGNNIGRKSVHWYQQKPGQAPVLVIYRDSNRPSGIPERFSGSNSGNTATLTISRAQAGDEADYYCQVWDSSTVVFGGGTKLTVLG | 5.13 nM | 0.0011 s⁻¹ | 214000 M⁻¹ s⁻¹ |
| anti-mutCALR antibody clone 47 (antibody, human IgG1, lambda, V domains shown, human IgG1) VH: EVQLVQSGAEVKKPGSSVKVSCKASGGTFSSYAISWVRQAPGQGLEWMGGIIPIFGTANYAQKFQGRVTITADESTSTAYMELSSLRSEDTAVYYCASSPLRGSGWYWHYYYGMDVWGQGTTVTVSS VL: SYELTQPPSVSVAPGKTARITCGGNKIGTKSVHWYQQKPGQAPVLVIYRDSNRPSGIPERFSGSNSGNTATLTISRAQAGDEADYYCQVWDSSTVVFGGGTKLTVLG | 3.62 nM | 0.000772 s⁻¹ | 213000 M⁻¹ s⁻¹ |
| anti-mutCALR antibody clone 44 (antibody, human IgG1, lambda, V domains shown, human IgG1) VH: EVQLVQSGAEVKKPGSSVKVSCKASGGTFSSYAISWVRQAPGQGLEWMGGIIPIFGTANYAQKFQGRVTITADESTSTAYMELSSLRSEDTAVYYCASSPLRGSGWYWHYYYGMDVWGQGTTVTVSS VL: SYVLTQPPSVSAAPGKTARISCGGNNIRSKSVHWYQQKAGQAPVLVIYQDSKRPSGIPERFSGSNSGNTATLTISGTQAMDEADYYCQAWDSNTVVFGGGTKLTVLG | 3.84 nM | 0.00101 s⁻¹ | 263000 M⁻¹ s⁻¹ |
| anti-mutCALR antibody clone 37 (antibody, human IgG1, lambda, V domains shown, human IgG1) VH: QVQLVQSGAEVKKPGATVKISCKVSGYSFTDYFIHWVQQAPGKGLAWVGLVDPEDGETIYAEKFQGRVTITADTSTDTAYMELSSLRSEDTAVYYCATPGGILTDPDAFDIWGQGTMVTVSS VL: QSALTQPASVSGSPGQSITISCTGTSSDVGGYNYVSWYQQHPGKAPKLMIYDVSNRPSGVSNRFSGSKSGNTASLTISGLQAEDEADYYCSSYTSSSTFYVFGTGTKVTVLG | 9.88 nM | 0.00212 s⁻¹ | 215000 M⁻¹ s⁻¹ |
| anti-mutCALR antibody clone 33 (antibody, human IgG1, lambda, V domains shown, human IgG1) VH: QVQLVQSGAEVKKPGATVKISCKVSGYSFTDYFIHWVQQAPGKGLAWVGLVDPEDGETIYAEKFQGRVTITADTSTDTAYMELSSLRSEDTAVYYCATPGGILTDPDAFDIWGQGTMVTVSS VL: QSALTQPRSVSGSPGQSVTISCAGTGSDVGGYNHVSWYQHHPGKAPKLMIYDVNKRPSGVPDRFSGSKSGNTASLTISGLQAEDEADYYCSSYIPSSTRWVFGGGTKLTVLG | 16.2 nM | 0.0126 s⁻¹ | 775000 M⁻¹ s⁻¹ |
| anti-mutCALR antibody clone 35 (antibody, human IgG1, lambda, V domains shown, human IgG1) VH: QVQLVQSGAEVKKPGATVKISCKVSGYSFTDYFIHWVQQAPGKGLAWVGLVDPEDGETIYAERFQGRVTITADTSTDTAYMELSSLRSEDTAVYYCATPGGILTDPDAFDIWGQGTMVTVSS VL: QSALTQPASVSGSPGQSITISCTGTSSDVGGYNYVSWYQQHPGKAPKLMIYEVSNRPSGVSNRFSGSKSGNTASLTISGLQAEDEADYYCSSYTSSSTPYVFGTGTKVTVLG | 2.82 nM | 0.00599 s⁻¹ | 2.13e+06 M⁻¹ s⁻¹ |

From patent US20230272055A1 (Incyte, published 2023)
